Assay results from US20180258181A1 (Bayer, published 2018).

Legend:
[1] = molecular target: T1, mesothelin on CHO-A9 cells (CHO-K1 stably transfected with the GPI-anchored C-terminal part of mesothelin) (Homo sapiens (Human), UniProt Q13421 287-598, GPI anchor); experiment: FACS with Scatchard analysis, IgG1 on CHO-A9 cells
T1 construct: In the immunoblots the protein stood in a denatured cell extract; also called mesothelin-expressing CHO-A9 cells

[2] = molecular target: T1, mesothelin on CHO-A9 cells (CHO-K1 …); experiment: live cell ELISA, IgG1 on CHO-A9 cells
[3] = molecular target: T2, human mesothelin (recombinant, soluble, purified; 40 kDa C-terminal polypeptide of the mesothelin precursor) (human, UniProt Q13421 296-598, limits assumed); experiment: Biacore pairwise binding, mesothelin (50 nM) captured by immobilized MF-T, second antibody 200 nM
T2 construct: also called soluble mesothelin
Procedure: Competitive binding of pairs of antibodies was determined by immobilizing one antibody to the sensor chip, binding soluble mesothelin to this antibody and immediately binding a second antibody to mesothelin. Pairs of antibodies which recognize the same or overlapping epitopes on mesothelin cannot bind simultaneously. All combinations of antibody pairs were tested. Representative data for MF-T are shown (A). Panel B depicts the relative positions of epitopes of seven anti-mesothelin antibodies, in which competition is depicted by overlapping circles.
Epitope grouping experiments were performed using Biacore by monitoring simultaneous binding of pairs of anti-mesothelin antibodies to immobilized mesothelin. Briefly, the first antibody was covalently immobilized to the sensor chip through primary amine coupling using n-hydroxysuccinamide ([…]) and N-ethyl-N′-dimethylaminopropyl carbodiimide (EDC). Unoccupied binding sites on the surface were then blocked with ethanolamide. Soluble mesothelin was captured on the surface via the immobilized antibody, therefore, the epitope of the capture antibody is blocked for all bound mesothelin molecules. A second antibody was immediately passed over the surface to bind to the immobilized mesothelin. Two antibodies recognizing the same or overlapping epitopes cannot bind to the mesothelin, whereas antibodies with distinct epitopes are able to bind. […]

T1 sequence (Q13421 other isoform, or with tags, fused parts or gaps limits assumed): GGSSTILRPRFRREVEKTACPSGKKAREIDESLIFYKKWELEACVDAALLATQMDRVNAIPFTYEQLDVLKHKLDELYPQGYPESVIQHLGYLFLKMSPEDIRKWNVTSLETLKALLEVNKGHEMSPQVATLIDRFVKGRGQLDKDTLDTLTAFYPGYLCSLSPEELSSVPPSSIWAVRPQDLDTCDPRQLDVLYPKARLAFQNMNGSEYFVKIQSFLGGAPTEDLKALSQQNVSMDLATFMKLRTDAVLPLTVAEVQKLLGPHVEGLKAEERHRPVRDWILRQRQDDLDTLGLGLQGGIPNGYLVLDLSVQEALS
T2 sequence (Q13421 other isoform, or with tags, fused parts or gaps limits assumed): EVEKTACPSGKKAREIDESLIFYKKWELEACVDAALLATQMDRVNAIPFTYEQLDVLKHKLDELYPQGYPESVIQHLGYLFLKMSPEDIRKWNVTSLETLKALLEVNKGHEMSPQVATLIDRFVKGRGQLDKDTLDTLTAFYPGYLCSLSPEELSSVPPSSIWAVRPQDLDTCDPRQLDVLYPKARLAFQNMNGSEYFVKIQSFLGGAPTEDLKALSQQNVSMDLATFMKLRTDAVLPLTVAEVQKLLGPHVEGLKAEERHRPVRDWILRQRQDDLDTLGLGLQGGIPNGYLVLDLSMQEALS

EC50 [1] | EC50 [2] | binding result [3] | Binder
0.15 nM | 0.4 nM |  | MF-226 IgG (antibody, V domains shown) VH: QVELVQSGAEVKKPGASVKVSCKASGYTFTGNYINWVRQAPGQGLEWMGIINPHGGDTKYAQKFQGRVTMTRDTSISTAYMELSSLRSEDTAVYYCARWHHGTWIFDYWGQGTLVTVSS VL: DIVLTQPPSVSGAPGQRVTISCSGSSSNIGSNYVSWYQQLPGTAPKLLIYNDNQRPSGVPDRFSGSKSGTSASLAITGLQSEDEADYYCSTYDRRTFSVFGGGTKLTVLG
0.07 nM | 0.8 nM |  | MF-L IgG (antibody, V domains shown) VH: QVQLVESGGGLVQPGGSLRLSCAASGFTFSDYAMSWVRQAPGKGLEWVSAIMYDSSSTFYADSVKGRFTISRDNSKNTLYLQMNSLRAEDTAVYYCARINYIYKGVHFDYWGQGTLVTVSS VL: DIVLTQSPATLSLSPGERATLSCRASQIVSGYLAWYQQKPGQAPRLLIYGASSRATGVPARFSGSGSGTDFTLTISSLEPEDFATYYCQQYYNFSFTFGQGTKVEIKR
0.27 nM | 1.5 nM |  | MF-T IgG (antibody, V domains shown) VH: QVELVQSGAEVKKPGESLKISCKGSGYSFTSYWIGWVRQAPGKGLEWMGIIDPGDSRTRYSPSFQGQVTISADKSISTAYLQWSSLKASDTAMYYCARGQLYGGTYMDGWGQGTLVTVSS VL: DIALTQPASVSGSPGQSITISCTGTSSDIGGYNSVSWYQQHPGKAPKLMIYGVNNRPSGVSNRFSGSKSGNTASLTISGLQAEDEADYYCSSYDIESATPVFGGGTKLTVLG
 |  | binds | MF-428 (antibody, V domains shown) VH: QVQLVESGGGLVQPGGSLRLSCAASGFTFSTYAMSWVRQAPGKGLEWVSFISGYGSSTYYADSVKGRFTISRDNSKNTLYLQMNSLRAEDTAVYYCARKMYWWSDGFDYWGQGTLVTVSS VL: DIELTQPPSVSVAPGQTARISCSGDNLRSKYAHWYQQKPGQAPVLVIYSKDNRPSGIPERFSGSNSGNTATLTISGTQAEDEADYYCSSWAHDHKVFGGGTKLTVLG
